Measured values taken from paper PMC7870846, “Incorporation of sensing modalities into de novo designed fluorescence-activating proteins” (Nature Communications, 2021).

How the values were obtained:
[1] = target: MBP-tagged split mFAP fragment m12; test: split reporter (BiFC, NanoBiT); protein-fragment complementation in vitro: complementary MBP-fused split mFAP fragments mixed at equimolar concentration with excess DFHBI-1T (1.00 uL of 1.25 mM in 25.0 uL); fluorescence endpoint ex 478 nm, em 520 nm; background without protein
[2] = target: MBP-tagged split mFAP fragment m12; test: other fluorescence titration; MBP-tagged fragment titrated into its complementary MBP-tagged fragment; 25.0 uM DFHBI-1T; high-salt Tev cleavage buffer (25.0 mM Tris, 100 mM NaCl, pH 8.00); ex 468 nm, em 530 nm; estimated Kd, signal did not plateau

B1: MBP-tagged split mFAP fragment m38 (domain or fragment)
chain: YTMDIVAQGTISDGRPIVGYGKATVKTPDTLDIDITYPSLGNIKAQGQITMDSPTQFKWDATTKGENDFHGRLTGTLQRQE
modifications: here or on the partner: strands 3-8; cut assumed in loop2 (34/35); MBP omitted / strands 1-2 of mFAP2a; cut assumed in loop2 (34/35, as in cp35-34); exact limits are in Supplementary Data 1, not shown; MBP omitted
B1 gave a fold mean fluorescence intensity over background [1] of 7.34 fold, a fold mean fluorescence intensity over the combination m1 and m28 [1] of 184 fold and a Kd [2] of over 281 µM.
